Measured values reported in paper PMC7988011, “NAC blocks Cystatin C amyloid complex aggregation in a cell system and in skin of HCCAA patients” (Nature Communications, 2021).
“And” between values parts separate entries of the source, which are not always exact repeats. Equal entries are not always repeated.

Key:
[1] = target: P01034; test: non-reducing SDS-PAGE with Western blot; supernatants and cellular extracts incubated with reduced glutathione (3 mM) at 37 °C before electrophoresis; HMW species quantitated by densitometry; settings: other: non-reducing SDS-PAGE with Western blot
[2] = target: the molecule itself; test: non-reducing SDS-PAGE with Western blot; lysates (1% NP-40 buffer) and supernatants of stable HEK-293T cells; 2% SDS sample buffer without reducing agent, not heated; NuPAGE 4-12% Bis-Tris; blotted with anti-cystatin C MAB1196

B1: L68Q variant of human cystatin C (natural protein, UniProt P01034 27-146, looked up)
chain: SSPGKPPRLVGGPMDASVEEEGVRRALDFAVGEYNKASNDMYHSRALQVVRARKQIVAGVNYFLDVEQGRTTCTKTQPNLDNCPFHDQPHLKRKAFCSFQIYAVPWQGTMTLSKSTCQDA
notes: Vector pBABE-CMV-Puro; also called L68Q-hCC; hCC L68Q
percent reduction of HMW species with 3 mM GSH (secreted fraction) [1]: ≈90% reduction of the HMW in the secreted fraction | stoichiometry N [2]: 2 and 3 and 4
